Experimental findings from patent US20240343815A1 are described below.

In assay [1] the target is recombinant human IL4Rα-his protein (human) (UniProt P24394). As to the kind of experiment: SPR Biacore, mAb captured, IL4Rα-his analyte.
Assay [2] shares this target. As to the kind of experiment: SPR Biacore, mAb captured, IL4Rα-his analyte. The source holds these as a separate data set.
For assay [3] the target is unchanged. Nature of the assay: benchmark blocking ELISA, competitor benchmark coated (self-competition), biotinylated IL4Rα-his. (In general: ELISA stands for enzyme-linked immunosorbent assay.)
For assay [4] the target is unchanged. Nature of the assay: IL4-IL4Rα blocking ELISA, IL4Rα-his coated, biotinylated IL4.
In assay [5] the target is human IL4Rα expressed on the surface of 293F-IL4Rα cells (human) (UniProt P24394). As to the kind of experiment: flow cytometry on 293F-IL4Rα cells. On the technique in general: In flow cytometry, cells or beads pass a laser one at a time.
The target in assay [6] is marmoset monkey IL4Rα-his protein (marmoset monkey). As to the kind of experiment: indirect ELISA, marmoset IL4Rα-his coated.
Sequence of marmoset monkey IL4Rα-his protein (marmoset monkey) (chain, as listed by the source limits assumed): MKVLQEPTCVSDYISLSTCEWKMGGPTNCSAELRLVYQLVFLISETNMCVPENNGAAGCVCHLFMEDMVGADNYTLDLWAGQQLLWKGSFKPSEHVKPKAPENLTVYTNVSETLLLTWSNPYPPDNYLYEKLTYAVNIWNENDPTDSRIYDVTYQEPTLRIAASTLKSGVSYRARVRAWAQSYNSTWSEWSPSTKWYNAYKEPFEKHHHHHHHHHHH
Assay [7] has as its target cynomolgus monkey IL4Rα-his protein (cynomolgus monkey). As to the kind of experiment: indirect ELISA, cynomolgus IL4Rα-his coated.
The target in assay [8] is human IL4Rα expressed on the surface of 293F-IL4Rα cells (human) (UniProt P24394). Nature of the assay: flow cytometry on 293F-IL4Rα cells. This is another data set of the same source.
The target of assay [9] is recombinant human IL4Rα-his protein (human) (UniProt P24394). As to the kind of experiment: SPR Biacore, mAb captured, IL4Rα-his analyte. The source holds these as a separate data set. For orientation: Surface plasmon resonance follows binding to a sensor surface in real time, without labels.
Assay [10] addresses human IL4Rα on HEK293T-IL4Rα-STAT6-STAT6LUC-LB2 cells (human) (UniProt P24394). Nature of the assay: cell-based or functional assay.
The target is the same in assay [11]. As to the kind of experiment: cell-based or functional assay. The source holds these as a separate data set.
Assay [12] concerns the target recombinant human IL4Rα-his protein (human) (UniProt P24394). As to the kind of experiment: capture ELISA, mAb captured by anti-human IgG, biotinylated IL4Rα-his.
Assay [13] has the same target. As to the kind of experiment: IL4-IL4Rα blocking ELISA, IL4Rα-his coated, biotinylated IL4. This is another data set of the same source.
Assay [14] addresses human IL4Rα expressed on the surface of 293F-IL4Rα cells (human) (UniProt P24394). As to the kind of experiment: cell-based ligand blocking FACS, 293F-IL4Rα cells, biotinylated IL4.

The term Kd denotes the constant that tells how readily two partners part at equilibrium. As usually defined, the IC50 is the concentration that gives 50% inhibition. By EC50 is commonly meant the midpoint of the concentration-response curve. As usually defined, the koff is the first-order rate constant of dissociation. As a reminder, the kon is the rate constant with which the complex forms.

Read-outs that look alike come from different tables or passages of the source.

Sequence of cynomolgus monkey IL4Rα-his protein (cynomolgus monkey) (chain, as listed by the source): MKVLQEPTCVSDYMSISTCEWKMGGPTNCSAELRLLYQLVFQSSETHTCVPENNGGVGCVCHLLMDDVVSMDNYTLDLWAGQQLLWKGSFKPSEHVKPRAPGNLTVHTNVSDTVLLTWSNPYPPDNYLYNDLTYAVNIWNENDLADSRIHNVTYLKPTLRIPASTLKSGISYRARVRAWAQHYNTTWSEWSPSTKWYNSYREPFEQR

B1: anti-IL4Rα antibody benchmark (dupilumab) (antibody, INN chains, looked up, V domains shown)
VH: EVQLVESGGGLEQPGGSLRLSCAGSGFTFRDYAMTWVRQAPGKGLEWVSSISGSGGNTYYADSVKGRFTISRDNSKNTLYLQMNSLRAEDTAVYYCAKDRLSITIRPRYYGLDVWGQGTTVTVSS
VL: DIVMTQSPLSLPVTPGEPASISCRSSQSLLYSIGYNYLDWYLQKSGQSPQLLIYLGSNRASGVPDRFSGSGSGTDFTLKISRVEAEDVGFYYCMQALQTPYTFGQGTKLEIKR
On to B1, for which the Kd in [1] was 0.746 nM; in assay [2], 0.466 nM; in [9] it was 0.188 nM. Besides, the IC50 in assay [3] is 0.19 nM; in assay [4] it was 1.74 nM; in assay [13], 2.06 nM; in assay [14], 0.42 nM. Besides, the EC50 is 0.46 nM in assay [5]; 1.72 nM in [6]; 0.67 nM in assay [7]; 0.4 nM in assay [8]; 0.05 nM in assay [12]. Besides, in assay [9], the Dissociation (%) is -2.64%. Besides, the End (RU) in assay [9] is 70 RU. The Start (RU) in assay [9] came to 71.9 RU. In addition, the koff in assay [9] stood at 6.25e-05 s⁻¹. Besides, the kon in [9] was 333000 M⁻¹ s⁻¹. For the same molecule, the Inhibition of IL4-induced STAT6 phosphorylation (IC50, nM) stood at 0.7 nM in assay [10] and 0.37 nM in assay [11]. In addition, the Inhibition of IL13-induced STAT6 phosphorylation (IC50, nM) was 0.84 nM in [10] and 0.48 nM in assay [11].
